# Test results: patent publication US20230391880A1 (published 2023)
# T1: human Activin A (human, UniProt A4D1W7 311-426, Activin A is a disulfide-linked homodimer of the inhibin beta A mature chain. One copy is given.)
# T1 sequence: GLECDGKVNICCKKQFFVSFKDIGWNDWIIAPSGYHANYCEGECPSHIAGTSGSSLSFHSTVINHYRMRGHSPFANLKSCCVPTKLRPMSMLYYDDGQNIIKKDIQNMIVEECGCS
# T2: human RANKL (receptor activator of nuclear factor-kappa B ligand) (human, UniProt O14788 140-317, limits assumed)
# T2 construct: also called OPGL
# T2 sequence (looked up): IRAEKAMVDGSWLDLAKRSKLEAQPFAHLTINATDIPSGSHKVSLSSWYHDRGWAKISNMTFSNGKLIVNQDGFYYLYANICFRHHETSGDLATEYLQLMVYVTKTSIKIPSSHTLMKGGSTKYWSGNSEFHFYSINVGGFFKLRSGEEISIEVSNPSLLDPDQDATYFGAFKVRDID
# T3: human TGF-β3 (human, UniProt P10600 301-412)
# T3 sequence (looked up): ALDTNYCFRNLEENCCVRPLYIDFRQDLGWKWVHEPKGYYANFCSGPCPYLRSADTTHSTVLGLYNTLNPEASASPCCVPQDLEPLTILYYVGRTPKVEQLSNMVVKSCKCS
# B1: bispecific antibody A237 (bispecific antibody)
# heavy: QVQLVQSGAEVKKPGASVKVSCKASGYTFTSYGLSWVRQAPGQGLEWMGWIIPYNGNTNSAQKLQGRVTMTTDTSTSTAYMELRSLRSDDTAVYFCARDRDYGVNYDAFDIWGQGTMVTVSSGGGGSGGGGSGGGGSEVQLLESGGGLVQPGGSLRLSCAASGFTFSSYAMSWVRQAPGKGLEWVSGITGSGGSTYYADSVKGRFTISRDNSKNTLYLQMNSLRAEDTAVYYCAKDPGTTVIMSWFDPWGQGTLVTVSSASTKGPSVFPLAPCSRSTSESTAALGCLVKDYFPEPVTVSWNSGALTSGVHTFPAVLQSSGLYSLSSVVTVPSSNFGTQTYTCNVDHKPSNTKVDKTVERKCCVECPPCPAPPVAGPSVFLFPPKPKDTLMISRTPEVTCVVVDVSHEDPEVQFNWYVDGVEVHNAKTKPREEQFNSTFRVVSVLTVVHQDWLNGKEYKCKVSNKGLPAPIEKTISKTKGQPREPQVYTLPPSREEMTKNQVSLTCLVKGFYPSDIAVEWESNGQPENNYKTTPPMLDSDGSFFLYSKLTVDKSRWQQGNVFSCSVMHEALHNHYTQKSLSLSPGK
# light: not shown
# B2: bispecific antibody A241 (bispecific antibody, human IgG2, kappa)
# heavy: QVQLVQSGAEVKKPGSSVKVSCKASGYTFSSNVISWVRQAPGQGLEWMGGVIPIVDIANYAQRFKGRVTITADESTSTTYMELSSLRSEDTAVYYCASTLGLVLDAMDYWGQGTLVTVSSGGGGSGGGGSGGGGSEVQLLESGGGLVQPGGSLRLSCAASGFTFSSYAMSWVRQAPGKGLEWVSGITGSGGSTYYADSVKGRFTISRDNSKNTLYLQMNSLRAEDTAVYYCAKDPGTTVIMSWFDPWGQGTLVTVSSASTKGPSVFPLAPCSRSTSESTAALGCLVKDYFPEPVTVSWNSGALTSGVHTFPAVLQSSGLYSLSSVVTVPSSNFGTQTYTCNVDHKPSNTKVDKTVERKCCVECPPCPAPPVAGPSVFLFPPKPKDTLMISRTPEVTCVVVDVSHEDPEVQFNWYVDGVEVHNAKTKPREEQFNSTFRVVSVLTVVHQDWLNGKEYKCKVSNKGLPAPIEKTISKTKGQPREPQVYTLPPSREEMTKNQVSLTCLVKGFYPSDIAVEWESNGQPENNYKTTPPMLDSDGSFFLYSKLTVDKSRWQQGNVFSCSVMHEALHNHYTQKSLSLSPGK
# light: ETVLTQSPGTLSLSPGERATLSCRASQSLGSSYLAWYQQKPGQAPRLLIYGASSRAPGIPDRFSGSGSGTDFTLTISRLEPEDFAVYYCQQYADSPITFGQGTRLEIKGGGGSGGGGSGGGGSEIVLTQSPGTLSLSPGERATLSCRASQSVRGRYLAWYQQKPGQAPRLLIYGASSRATGIPDRFSGSGSGTDFTLTISRLEPEDFAVFYCQQYGSSPRTFGQGTKVEIKRTVAAPSVFIFPPSDEQLKSGTASVVCLLNNFYPREAKVQWKVDNALQSGNSQESVTEQDSKDSTYSLSSTLTLSKADYEKHKVYACEVTHQGLSSPVTKSFNRGEC
# Experiments:
# Experiment in all cases: BLI (Octet RED96), antagonist captured on biosensor, ligand in solution
# [1] = biological target: T1, human Activin A
# Method: (§1) Binding activities of individual bifunctional antagonists to human ligands or target proteins were measured by biolayer interferometry (BLI) using Octet RED96 (FortéBIO, Pall Corporation, USA). Binding analysis was performed by first capturing the polypeptide bifunctional antagonists to biosensors followed by two baseline steps in 1× kinetic buffer. The bifunctional antagonists-captured biosensors were then submerged in wells containing different concentrations of specific individual ligand, such as RANKL, Activin A, activin B, Activin AB, myostatin, TGF-β1, TGF-β2 or TGF-β3, for 6 min association followed by 6 min of dissociation time in 1× kinetic buffer. The bifunctional antagonists-captured sensors were also dipped in wells containing 1× kinetic buffer to allow single reference subtraction in order to compensate for the natural dissociation of captured bifunctional antagonists. The binding sensorgrams were collected using the 8-channel detection mode on the Octet RED96 biosensor. Data were acquired and analyzed using the data acquisition software v11.1 (FortéBIO, Pall Corporation, USA).
# [2] = biological target: T2, human RANKL (receptor activator of …)
# Method: as §1
# [3] = biological target: T3, human TGF-β3
# Method: as §1
# [4] = biological target: human TGF-β1 (human, UniProt P01137 279-390)
# Chain of human TGF-β1 (P01137 279-390 limits assumed): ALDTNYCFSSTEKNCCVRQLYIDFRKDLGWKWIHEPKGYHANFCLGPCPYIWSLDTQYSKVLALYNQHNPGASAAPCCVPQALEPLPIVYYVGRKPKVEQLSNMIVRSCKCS
# Method: as §1
Binder,Kd [1] [nM],Kd [2] [nM],Kd [3] [nM],Kd [4] [nM]
B1,~0.3,~0.001,,
B2,,~0.7,~0.3,~2
